Results taken from patent US20110052551A1, “CARDIAC MYOCYTE MORPHOGENIC COMPOSITIONS AND METHODS OF USE THEREFOR” (priority 2008, published 2011).

Columns and labels:
Format in all cases: cell-based, mice
unfractionated BMMNCs [1] = assay: Proliferation of unfractionated BMMNCs (Trypan blue cell count); conditions: cultures initiated with 10^4 cells
Experimental: Assessment of cellular proliferation. To study proliferation within each experimental group, unfractionated BMMNCs (n=1×10^4) were cultured as above in separate experiments (see FIG. 9A). Cells were monitored by phase contrast microscopy during culture in a humidified 5% CO2 incubator at 37° C. for up to 21 days. The medium was replenished every 6 days and expanded cells were harvested by trypsinization and gentle resuspension on days 8, 16, and 21. Cell number and viability was determined by Trypan blue staining, and the fold-increase in cell number over time was analyzed.

unfractionated BMMNCs [2] = assay: Immunocytochemistry for pan-hematopoietic marker CD45; conditions: after 21 days of culture; percent of total cells
Experimental: Immunocytochemistry. Cells were fixed on glass cover-slides with 4% paraformaldehyde for 20 minutes at 4° C. Cells were washed four times and permeabilized with BD PERM/WASH™ (containing saponin; BD Biosciences, San Jose, Calif., United States of America). For immunostaining, separate preparations of BD PERM/WASH™ containing primary monoclonal antibodies against either cardiac troponin T (cTnT; Santa Cruz Biotechnology, Santa Cruz, Calif., United States of America) or cardiac myosin heavy chain (cMyHC; Novus Biologicals, Inc., Littleton, Colo., United States of America) or connexin-43 or Oct-4 were prepared; all primary antibodies, save cMyHC, were purchased from Santa Cruz Biotechnology. Each preparation also contained primary monoclonal antibodies against nestin, glial fibrillary acidic protein (GFAP), CD11B, Gr-1 (myeloid lineage markers), the CD45 epitope, myogenin
These preparations were then applied separately (i.e., mixtures either with cTnT or with cMyHC) or, for co-immunostaining experiments, in combinations to cells for 16 hours at 4° C. and 37° C. for the final hour. […]

unfractionated BMMNCs [3] = assay: Assessment of cardiac differentiation by immunocytochemistry (cMyHC, cTnT); conditions: 21 days of culture
From the text: (§1) Induction of differentiation. To assess the influence of ectopic expression of Wnt11 on BMMNC differentiation, Wnt11 conditioned medium (Wnt11-CM) was generated. Specifically, unfractionated BMMNCs were co-cultured with Wnt11-expressing HEK-293 cells (Wnt11/293-2; designated as Wnt11-CM), under the same conditions used to culture BMMNCs. In order to achieve strict separation of cell types during co-culture experiments, BMMNC and Wnt11/293 cells were separated into upper and lower chambers of a TRANSWELL® co-culture system. Wnt11/293-2 or pcDNA3/293 (empty vector) cells (the controls in this experiment) were cultured in the upper chamber on the polyester (PET) membrane of a 24 mm TRANSWELL® insert, and unfractionated BMMNCs were cultured in the lower chamber as described above.
Moreover, to eliminate the possibility of cell fusion or cell-cell contact as a requirement for Wnt11-mediated effects, a membrane pore size of 0.4 μm was chosen, thus preventing egression of Wnt11/293-2 cells to the lower compartment that contained BMMNCs. Of note, TRANSWELL® inserts were maintained separately without cells until day 10 of BMMNC attachment. […]
Assessment of cardiac differentiation. For quantitative assessment of cardiomyocytic differentiation, an average of 2400 cells/plate were counted. Multiple fields from all 4 quarters of the plate were systematically evaluated. […]

unfractionated BMMNCs [4] = assay: qRT-PCR of cardiac-specific mRNA levels in cultured BMMNCs; conditions: 21 days of culture
From the text: as §1, with “Wnt11/293-2 or pcDNA3/293 (empty vector) cells (the controls in this experiment) were cultured in the upper chamber on the polyester (PET) membrane of a 24 mm TRANSWELL® insert, and unfractionated BMMNCs were cultured in the lower chamber as described above.” left out
Assessment of mRNA expression by quantitative real-time RT-PCR (qRT-PCR). […] Prior to mRNA extraction, cell number was determined and calculated by Trypan blue exclusion. cDNA was generated from freshly isolated (designated as baseline) and cultured unfractionated BMMNCs at days 0, 3, 7, and 21 (see FIG. 9A) using QUANTISCRIPT REVERSE TRANSCRIPTASE™ (Qiagen Inc., Valencia, Calif., United States of America) contained in RT master mix of Cell to cDNA kits according to manufacturer's protocol. […]
To avoid amplification of contaminating DNA, all validated qRT-PCR primers were designed to cross […] sequences within the cDNA to be amplified. Quantitative qRT-PCR analysis was performed in an ABI Prism 7900H sequence detection system (Applied Biosystems, Foster City, Calif.) using QUANTITECT™ SYBR® Green Real Time PCR kits. […]

B1: Wnt3a: recombinant Wnt3a protein, canonical Wnt, used at 150 ng/ml (protein, UniProt P56704 19-352, looked up)
Protein Wnt-3a: SYPIWWSLAVGPQYSSLGSQPILCASIPGLVPKQLRFCRNYVEIMPSVAEGIKIGIQECQHQFRGRRWNCTTVHDSLAIFGPVLDKATRESAFVHAIASAGVAFAVTRSCAEGTAAICGCSSRHQGSPGKGWKWGGCSEDIEFGGMVSREFADARENRPDARSAMNRHNNEAGRQAIASHMHLKCKCHGLSGSCEVKTCWWSQPDFRAIGDFLKDKYDSASEMVVEKHRESRGWVETLRPRYTYFKVPTERDLVYYEASPNFCEPNPETGSFGTRDRTCNVSSHGIDGCDLLCCGRGHNARAERRREKCRCVFHWCCYVSCQECTRVYDVHTCK
In the case of B1, the “increase in cell number” value (unfractionated BMMNCs [1]; day 16) is reported as 110±0.1 fold, the “increase in cell number” value (unfractionated BMMNCs [1]; day 21) is reported as 297±0.1 fold and the “cells positive for CD45” value (unfractionated BMMNCs [2]) is reported as 69.9±2.9%. For the same molecule, the “expression of cardiac-specific contractile proteins (cTnT, cMyHC)” value (unfractionated BMMNCs [3]) was “not observed” and the cardiac-specific transcripts (unfractionated BMMNCs [4]) was “no cardiac-specific transcripts were detected”.
